Where a chain is given by its changes, count along the chain named. Values belong to the binder of their own block, whether it stands above or below them.
What was measured:
[1] = target: T1, cynomolgus monkey C-MET on stably transfected CHO-K1 cells (cynomolgus monkey, UniProt A0M8R7 25-1381 (Papio anubis entry)); assay: flow cytometry, C-MET CHO-K1 cells
T1 construct: also called cycMET; cyno C-MET+ CHO-K1 cells
Procedure: (§1) Purified IgGs were tested in FACs for binding to human and cyno C-MET expressed on CHO-K1 stable cell lines and CHO-K1 wild-type cells. The IgG samples were titrated in three-fold serial dilutions starting at 500 nM to 0.08 nM. Binding of IgGs was detected with a mouse anti-human IgG conjugated to FITC. Results were analyzed by examining the Mean Fluorescence Intensity (MFI) of 10000 cells per sample in the BL-1 channel detector of a flow cytometer (Attune™ NxT Acoustic Focusing Cytometer, Invitrogen/ThermoFisher Scientific).
(§2) Antibodies to C-MET were analysed for concentration-dependent binding at the cell surface via flow cytometry. CHO-K1 cells were stably transfected with either human or cyno C-MET full-length cDNAs. Anti-C-MET IgGs and an isotype control IgG4(S228P) were then all tested in IgG4(S228P) format, over a concentration range of 500-0.08 nM for binding to human (FIG. 5A) and cyno (FIG. 5B) CHO-K1 cells.

[2] = target: T2, human C-MET on stably transfected CHO-K1 cells (human, UniProt P08581 25-1390); assay: flow cytometry, C-MET CHO-K1 cells
T2 construct: also called hucMET; human C-MET+ CHO-K1 cells
T2 sequence (P08581 25-1390 limits assumed): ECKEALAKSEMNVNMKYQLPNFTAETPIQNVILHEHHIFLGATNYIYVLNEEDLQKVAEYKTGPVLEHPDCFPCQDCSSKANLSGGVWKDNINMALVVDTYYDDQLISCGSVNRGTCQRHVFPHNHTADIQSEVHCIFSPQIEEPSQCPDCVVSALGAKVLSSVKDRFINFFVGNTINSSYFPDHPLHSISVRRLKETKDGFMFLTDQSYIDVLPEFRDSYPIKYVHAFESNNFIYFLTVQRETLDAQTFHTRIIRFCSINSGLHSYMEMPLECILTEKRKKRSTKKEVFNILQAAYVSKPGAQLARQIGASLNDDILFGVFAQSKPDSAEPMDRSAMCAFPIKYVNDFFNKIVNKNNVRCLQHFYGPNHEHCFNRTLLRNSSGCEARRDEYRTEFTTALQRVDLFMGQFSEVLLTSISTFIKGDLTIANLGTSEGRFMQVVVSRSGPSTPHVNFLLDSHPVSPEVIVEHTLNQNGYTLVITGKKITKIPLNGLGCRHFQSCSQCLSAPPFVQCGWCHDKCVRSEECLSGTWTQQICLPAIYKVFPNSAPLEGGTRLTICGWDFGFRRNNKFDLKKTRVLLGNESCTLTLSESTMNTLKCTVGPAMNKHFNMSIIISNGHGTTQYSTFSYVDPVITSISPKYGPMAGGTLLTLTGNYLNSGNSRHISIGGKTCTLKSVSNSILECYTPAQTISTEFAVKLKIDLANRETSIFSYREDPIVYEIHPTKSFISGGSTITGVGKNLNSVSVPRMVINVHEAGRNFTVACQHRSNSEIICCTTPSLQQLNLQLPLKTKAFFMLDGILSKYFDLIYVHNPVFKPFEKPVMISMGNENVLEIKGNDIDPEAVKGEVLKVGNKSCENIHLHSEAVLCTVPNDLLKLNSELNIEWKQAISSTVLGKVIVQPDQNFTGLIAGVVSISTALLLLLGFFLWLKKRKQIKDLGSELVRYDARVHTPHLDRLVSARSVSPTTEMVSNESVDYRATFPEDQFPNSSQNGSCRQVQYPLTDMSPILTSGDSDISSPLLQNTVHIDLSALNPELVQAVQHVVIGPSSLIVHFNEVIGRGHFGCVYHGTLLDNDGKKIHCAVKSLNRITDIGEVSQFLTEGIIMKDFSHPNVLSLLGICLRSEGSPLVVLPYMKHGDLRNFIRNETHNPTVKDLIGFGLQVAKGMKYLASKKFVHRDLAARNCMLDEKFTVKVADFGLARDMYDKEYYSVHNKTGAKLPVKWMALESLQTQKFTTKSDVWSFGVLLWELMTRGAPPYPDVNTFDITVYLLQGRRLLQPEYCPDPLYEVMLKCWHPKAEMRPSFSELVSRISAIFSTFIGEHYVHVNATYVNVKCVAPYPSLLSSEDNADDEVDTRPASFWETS
Procedure: as §1, §2

Insulin = target: T3, Insulin; assay: polyreactivity ELISA on insulin; design: scale not given here
T3 construct: Coated surface of the polyreactivity (development risk) ELISA
T3 sequence (P01308 25-54, chain 1 of 2): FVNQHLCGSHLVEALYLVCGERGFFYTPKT
T3 sequence (P01308 90-110, chain 2 of 2): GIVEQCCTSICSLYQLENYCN

[3] = target: T4, cynomolgus monkey C-MET His tag, monomeric (cynomolgus monkey, UniProt A0M8R7 25-932 (Papio anubis entry)); assay: SPR Biacore, monomeric cyno against monomeric human C-MET
T4 construct: also called monomeric cyno C-MET; cyCMET
T4 sequence (A0M8R7 25-932 S170N/I621T): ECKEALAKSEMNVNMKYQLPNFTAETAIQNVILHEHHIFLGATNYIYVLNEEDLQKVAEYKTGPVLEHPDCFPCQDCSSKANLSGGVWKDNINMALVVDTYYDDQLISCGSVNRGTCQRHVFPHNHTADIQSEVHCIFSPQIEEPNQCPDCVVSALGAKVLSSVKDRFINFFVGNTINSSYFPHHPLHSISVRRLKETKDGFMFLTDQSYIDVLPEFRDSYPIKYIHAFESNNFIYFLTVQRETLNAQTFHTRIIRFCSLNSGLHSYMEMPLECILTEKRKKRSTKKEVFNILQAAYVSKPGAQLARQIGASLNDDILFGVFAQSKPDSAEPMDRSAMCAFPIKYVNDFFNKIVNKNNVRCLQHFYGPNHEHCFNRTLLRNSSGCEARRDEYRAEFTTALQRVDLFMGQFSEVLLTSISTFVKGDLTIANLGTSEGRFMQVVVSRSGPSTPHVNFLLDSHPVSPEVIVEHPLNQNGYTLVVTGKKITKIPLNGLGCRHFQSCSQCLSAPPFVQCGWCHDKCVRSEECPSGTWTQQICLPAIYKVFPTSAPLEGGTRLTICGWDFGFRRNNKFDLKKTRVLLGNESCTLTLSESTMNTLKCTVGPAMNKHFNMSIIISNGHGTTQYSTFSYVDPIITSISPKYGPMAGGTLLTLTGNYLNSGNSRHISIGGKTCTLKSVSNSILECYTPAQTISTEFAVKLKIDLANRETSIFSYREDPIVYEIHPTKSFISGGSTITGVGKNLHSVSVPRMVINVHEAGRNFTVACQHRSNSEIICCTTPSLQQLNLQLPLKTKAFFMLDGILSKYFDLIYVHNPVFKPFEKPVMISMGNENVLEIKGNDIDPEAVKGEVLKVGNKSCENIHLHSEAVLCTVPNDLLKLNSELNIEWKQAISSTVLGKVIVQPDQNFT
Procedure: (§3) Affinity (KD) of purified IgGs was determined via SPR with antigen in-solution on a Biacore® 3000 (GE). A mouse anti-human antibody (CH1 specific) was immobilized on a CM5 Sensor Chip to a level of 2000 RU in acetate buffer at pH 4.5 using amine coupling following the Wizard instructions for two channels. One channel was used for background signal correction. The standard running buffer HBS-EP pH 7.4 was used. Regeneration was performed with a single injection of 10 μl of 10 mM Glycine at pH 1.5 at 20 μl/minute. IgG samples were injected for 2 minutes at 50 nM at 30 μl/min followed by and off-rate of 60 seconds. The monomeric antigen (human C-MET His tagged or cynomolgus monkey C-MET His tag) was injected in two fold serial dilutions from 100 nM down to 6 nM, for 2 minutes at 30 μl/min followed by an off-rate of 300 seconds. The obtained sensorgrams were analysed using the Biacore® 3000 evaluation (BIAevaluation) software. The KD was calculated by simultaneous fitting of the association and dissociation phases to a 1:1 Langmuir binding model.

[4] = target: T5, human C-MET His tagged, monomeric (human, UniProt P08581 25-932); assay: SPR Biacore, IgG captured, monomeric C-MET-His analyte
T5 construct: also called monomeric human C-MET; biotinylated human C-MET-His
T5 sequence (P08581 25-932): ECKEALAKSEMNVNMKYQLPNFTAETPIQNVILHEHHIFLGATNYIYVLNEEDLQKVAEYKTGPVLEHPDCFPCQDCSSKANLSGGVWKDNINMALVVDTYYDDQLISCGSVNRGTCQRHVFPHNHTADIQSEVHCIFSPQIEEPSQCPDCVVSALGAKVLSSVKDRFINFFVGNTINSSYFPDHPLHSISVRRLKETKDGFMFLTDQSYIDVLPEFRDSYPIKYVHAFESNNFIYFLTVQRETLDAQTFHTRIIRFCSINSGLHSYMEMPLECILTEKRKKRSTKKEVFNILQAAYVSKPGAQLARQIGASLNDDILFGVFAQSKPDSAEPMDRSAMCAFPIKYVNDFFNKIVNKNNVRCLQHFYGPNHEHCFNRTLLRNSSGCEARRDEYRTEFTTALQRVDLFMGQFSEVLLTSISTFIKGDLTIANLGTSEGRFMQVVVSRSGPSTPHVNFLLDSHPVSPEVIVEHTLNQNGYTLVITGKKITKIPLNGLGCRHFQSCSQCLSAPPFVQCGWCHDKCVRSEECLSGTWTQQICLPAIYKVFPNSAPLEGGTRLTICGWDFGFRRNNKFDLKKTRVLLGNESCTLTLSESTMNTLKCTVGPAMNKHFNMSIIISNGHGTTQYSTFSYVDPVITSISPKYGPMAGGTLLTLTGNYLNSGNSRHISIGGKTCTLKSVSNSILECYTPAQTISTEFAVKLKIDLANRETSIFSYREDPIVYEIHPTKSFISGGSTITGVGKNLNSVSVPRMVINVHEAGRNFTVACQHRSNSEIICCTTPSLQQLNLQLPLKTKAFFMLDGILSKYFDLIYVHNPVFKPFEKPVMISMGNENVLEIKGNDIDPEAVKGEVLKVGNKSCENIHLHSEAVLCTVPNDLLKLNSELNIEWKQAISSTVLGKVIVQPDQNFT
Procedure: as §3

[5] = target: T4, cynomolgus monkey C-MET His tag, …; assay: as above
Procedure: as §3

[6] = target: T1, cynomolgus monkey C-MET on stably …; assay: flow cytometry, C-MET CHO-K1 cells; remark: listed apart in the source
Procedure: as §1

[7] = target: T2, human C-MET on stably transfected …; assay: flow cytometry, C-MET CHO-K1 cells; remark: listed apart in the source
Procedure: as §1

[8] = target: T5, human C-MET His tagged, monomeric; assay: Alphascreen epitope competition in solution: varied IgG4(S228P) against 224G11 IgG4(S228P) binding to biotinylated human C-MET, CPS (crosstalk-corrected)
Procedure: FIG. 7. Epitope competition analysis of IgG4(S228P) proteins in Alphascreen. Anti-Humanized h224G11, Grafted clone (Graft) and clones 08G07, MH7, MH7-1, MH7-2, MH7-3 in human IgG4(S228P) format were titrated (in nM) in an epitope competition assay using Alphascreen technology. In this assay, library-derived and designer IgGs were analysed for their retention of the parental 224G11 epitope by competing for 224G11 IgG4(S228P) binding to human C-MET protein, in solution.
The AlphaScreen assay (Perkin Elmer) was performed in a 25 μl final volume in 384-well white microtiter plates (Greiner). The reaction buffer contained 1×PBS pH 7.3 (Oxoid, Cat. nr. BR0014G) and 0.05% (v/v) Tween® 20 (Sigma, Cat. nr. P9416). Purified IgG samples were titrated in three fold serial dilutions starting at 50 nM final concentration and incubated with biotinylated human C-MET-His (Acrobiosystems) at 1 nM final concentration for 20 minutes at room temperature. The parental IgG and the anti-human IgG4(S228P) Acceptor beads at were added and the mix was incubated for 1 hour at room temperature. Followed by addition of the Streptavidin Donor beads and incubation for 30 minutes at room temperature. The emission of light was measured in the EnVision multilabel plate reader (Perkin Elmer) and analysed using the EnVision manager software. Values were reported as Counts Per Second (CPS) and corrected for crosstalk. […]

[9] = target: T5, human C-MET His tagged, monomeric; assay: SPR Biacore
Procedure: as §3

T1 sequence (A0M8R7 25-1381 S170N/I621T limits assumed): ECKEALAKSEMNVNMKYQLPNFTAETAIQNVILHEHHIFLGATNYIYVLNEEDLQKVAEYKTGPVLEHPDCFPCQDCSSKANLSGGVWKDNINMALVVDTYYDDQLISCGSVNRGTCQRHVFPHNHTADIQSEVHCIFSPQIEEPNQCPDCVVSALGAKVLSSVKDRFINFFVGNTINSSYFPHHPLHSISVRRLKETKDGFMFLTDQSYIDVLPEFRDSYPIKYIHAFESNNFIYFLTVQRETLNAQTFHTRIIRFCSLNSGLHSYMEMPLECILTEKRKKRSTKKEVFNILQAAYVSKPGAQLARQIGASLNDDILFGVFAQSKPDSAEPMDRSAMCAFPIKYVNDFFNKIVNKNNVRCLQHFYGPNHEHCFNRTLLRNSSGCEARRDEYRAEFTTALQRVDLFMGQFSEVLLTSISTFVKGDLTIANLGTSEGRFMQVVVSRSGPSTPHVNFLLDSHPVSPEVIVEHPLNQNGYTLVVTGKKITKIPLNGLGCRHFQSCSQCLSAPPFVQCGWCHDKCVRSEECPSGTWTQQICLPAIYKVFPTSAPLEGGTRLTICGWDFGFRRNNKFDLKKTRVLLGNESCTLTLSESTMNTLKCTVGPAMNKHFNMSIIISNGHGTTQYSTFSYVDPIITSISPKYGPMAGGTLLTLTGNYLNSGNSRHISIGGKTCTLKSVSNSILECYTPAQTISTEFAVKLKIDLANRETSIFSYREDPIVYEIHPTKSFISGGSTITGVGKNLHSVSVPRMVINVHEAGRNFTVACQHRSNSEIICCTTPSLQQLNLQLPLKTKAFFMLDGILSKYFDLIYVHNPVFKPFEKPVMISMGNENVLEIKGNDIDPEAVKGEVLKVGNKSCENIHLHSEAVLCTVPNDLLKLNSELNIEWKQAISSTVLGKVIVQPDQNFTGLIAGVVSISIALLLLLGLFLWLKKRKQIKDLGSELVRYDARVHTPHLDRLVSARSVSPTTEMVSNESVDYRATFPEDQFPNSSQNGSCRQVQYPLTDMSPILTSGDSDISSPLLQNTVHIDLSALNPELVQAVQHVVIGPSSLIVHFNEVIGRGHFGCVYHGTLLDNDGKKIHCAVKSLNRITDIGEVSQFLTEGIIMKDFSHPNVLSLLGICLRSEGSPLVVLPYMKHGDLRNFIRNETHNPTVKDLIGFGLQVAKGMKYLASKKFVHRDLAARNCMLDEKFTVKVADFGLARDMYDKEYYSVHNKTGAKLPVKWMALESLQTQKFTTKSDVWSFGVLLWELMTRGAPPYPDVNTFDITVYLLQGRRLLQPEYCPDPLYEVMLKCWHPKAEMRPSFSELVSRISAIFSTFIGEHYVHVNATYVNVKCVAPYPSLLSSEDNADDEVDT

maximum MFI, fold over Isotype IgG4 background [1]: > 10 fold | maximum MFI, fold over Isotype IgG4 background [2]: > 10 fold | reactivity score (Insulin): 1 | cyno C-MET affinity, fold of the human C-MET affinity [3]: ≤ 2 fold | Kd [4]: 0.3 nM | koff [4]: 2.9e-05 s⁻¹ | kon [4]: 98000 M⁻¹ s⁻¹ | Kd [5]: 0.19 nM | koff [5]: 5.2e-05 s⁻¹ | kon [5]: 270000 M⁻¹ s⁻¹ | EC50 [6]: 0.54 nM | EC50 [7]: 1.14 nM
B1: MH7 (antibody, human IgG4, V domains shown)
VH: QVQLVQSGAEVKKPGASVKVSCKASGYTFTSYTMHWVRQAPGQGLEWMGIINPSGGSTSYAQKFQGRVTMTRDTSTSTVYMELSSLRSEDTAVYYCARQEITTEFDYWGQGTLVTVSS
VL: EIVLTQSPGTLSLSPGERATLSCRASQSVSSYANSYLHWYQQKPGQAPRLLIYRGSTRESGIPDRFSGSGSGTDFTLTISRLEPEDFAVYYCQQSKSEPLTFGGGTKVEIK

maximum MFI, fold over Isotype IgG4 background [1]: > 10 fold | maximum MFI, fold over Isotype IgG4 background [2]: > 10 fold | reactivity score (Insulin): 1 | IC50 (read off the curve) [8]: ~0.2 nM | Kd [4]: 1.31 nM | koff [4]: 0.000123 s⁻¹ | kon [4]: 94400 M⁻¹ s⁻¹ | Kd [5]: 1.03 nM | koff [5]: 0.000174 s⁻¹ | kon [5]: 168000 M⁻¹ s⁻¹
B2: MH7-3 (antibody, human IgG4, V domains shown)
VH: B1 VH
VL: B1 VL with N34Q, S60T, S97E, E98S

maximum MFI, fold over Isotype IgG4 background [1]: > 10 fold | maximum MFI, fold over Isotype IgG4 background [2]: > 10 fold | Kd [4]: 0.63 nM | koff [4]: 4.4e-05 s⁻¹ | kon [4]: 71000 M⁻¹ s⁻¹ | Kd [5]: 0.2 nM | koff [5]: 3.6e-05 s⁻¹ | kon [5]: 180000 M⁻¹ s⁻¹ | EC50 [6]: 0.46 nM | EC50 [7]: 2.14 nM | fold reduction in binding affinity against MH4 [9]: ~2 fold
B3: MH10 (antibody, IgG4, V domains shown)
VH: B1 VH with T33A, I50W
VL: B1 VL

Source: patent US20260042850A1 (LOCKBODY THERAPEUTICS, published 2026)
